This is an account of results in PMC10869273 (Nature Biotechnology, 2023).

The assay concerns the target SARS-CoV-2 Omicron BA.1 receptor-binding domain (RBD) (SARS-CoV-2 Omicron BA.1, strain, biotin on the AviTag (expressed in the presence of BirA)).

B1: REGN10987 VH R16G-V108D (antibody, V domains shown)
VH: QVQLVESGGGVVQPGGSLRLSCAASGFTFSNYAMYWVRQAPGKGLEWVAVISYDGSNKYYADSVKGRFTISRDNSKNTLYLQMNSLRTEDTAVYYCASGSDYGDYLLDYWGQGTLVTVSS
VL: QSALTQPASVSGSPGQSITISCTGTSSDVGGYNYVSWYQQHPGKAPKLMIYDVSKRPSGVSNRFSGSKSGNTASLTISGLQSEDEADYYCNSLTSISTWVFGGGTKLTVL
Turning to B1, the binding result is on record as “binds”.
